B1: Retinoblastoma-associated protein (Homo sapiens), P06400 (parent)
chain: MPPKTPRKTAATAAAAAAEPPAPPPPPPPEEDPEQDSGPEDLPLVRLEFEETEEPDFTALCQKLKIPDHVRERAWLTWEKVSSVDGVLGGYIQKKKELWGICIFIAAVDLDEMSFTFTELQKNIEISVHKFFNLLKEIDTSTKVDNAMSRLLKKYDVLFALFSKLERTCELIYLTQPSSSISTEINSALVLKVSWITFLLAKGEVLQMEDDLVISFQLMLCVLDYFIKLSPPMLLKEPYKTAVIPINGSPRTPRRGQNRSARIAKQLENDTRIIEVLCKEHECNIDEVKNVYFKNFIPFMNSLGLVTSNGLPEVENLSKRYEEIYLKNKDLDARLFLDHDKTLQTDSIDSFETQRTPRKSNLDEEVNVIPPHTPVRTVMNTIQQLMMILNSASDQPSENLISYFNNCTVNPKESILKRVKDIGYIFKEKFAKAVGQGCVEIGSQRYKLGVRLYYRVMESMLKSEEERLSIQNFSKLLNDNIFHMSLLACALEVVMATYSRSTSQNLDSGTDLSFPWILNVLNLKAFDFYKVIESFIKAEGNLTREMIKHLERCEHRIMESLAWLSDSPLFDLIKQSKDREGPTDHLESACPLNLPLQNNHTAADMYLSPVRSPKKKGSTTRVNSTANAETQATSAFQTQKPLKSTSLSLFYKKVYRLAYLRLNTLCERLLSEHPELEHIIWTLFQHTLQNEYELMRDRHLDQIMMCSMYGICKVKNIDLKFKIIVTAYKDLPHAVQETFKRVLIKEEEYDSIIVFYNSVFMQRLKTNILQYASTRPPTLSPIPHIPRSPYKFPSSPLRIPGGNIYISPLKSPYKISEGLPTPTKMTPRSRILVSIGESFGTSEKFQKINQMVCNSDRVLKRSAEGSNPPKPLKKLRFDIEGSDEADGSKHLPGESKFQQKLAEMTSTRTRMQKQKMNDSMDTSNKEEK

What was measured:
[1] = variants of: B1; details: with e2f1_human E2F1, Q01094
[2] = variants of: B1; details: with e2f1_human E2F1, Q01094; remark: listed apart in the source

e2f1_human E2F1, Q01094, sequence (Q01094 whole entry): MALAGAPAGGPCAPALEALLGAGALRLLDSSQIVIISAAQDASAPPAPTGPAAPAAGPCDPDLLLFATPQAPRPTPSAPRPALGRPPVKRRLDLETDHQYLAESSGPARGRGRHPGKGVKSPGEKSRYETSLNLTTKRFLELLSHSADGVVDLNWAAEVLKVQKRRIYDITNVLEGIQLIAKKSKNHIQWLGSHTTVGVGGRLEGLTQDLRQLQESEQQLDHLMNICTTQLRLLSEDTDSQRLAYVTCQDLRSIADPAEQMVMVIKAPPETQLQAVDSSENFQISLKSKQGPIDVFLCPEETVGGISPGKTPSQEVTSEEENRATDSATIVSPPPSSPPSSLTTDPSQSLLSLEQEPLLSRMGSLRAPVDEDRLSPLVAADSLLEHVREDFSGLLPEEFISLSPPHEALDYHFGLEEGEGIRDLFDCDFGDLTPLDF

| effect of a mutation on the interaction [1] | effect of a mutation on the interaction [2] | Variant |
| --- | --- | --- |
| disrupting interaction | decreasing interaction | K873Q |
| disrupting interaction | decreasing interaction | K874Q |

Source: IntAct's records for PubMed 16374512
